The series deals with T1, His6-Fur (Escherichia coli) (UniProt P0A9A9).
T1 sequence: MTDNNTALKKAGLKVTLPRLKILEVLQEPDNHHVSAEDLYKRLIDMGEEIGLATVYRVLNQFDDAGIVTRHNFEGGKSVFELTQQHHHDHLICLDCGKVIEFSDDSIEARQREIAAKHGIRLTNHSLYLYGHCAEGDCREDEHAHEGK
Kind of series: EMSA. Particulars: EMSA: 10 mM Tris-HCl pH 7.5, 50 mM KCl, 0.5 mM DTT, 0.05 mg/ml BSA, 4% glycerin, 1 mM MgCl2, 0.1 mM MnCl2, 50 ug/ml poly(dI-dC), 10 ng probe, temperature not ….

In the case of “GCGATATCACCGGTATAAGGGGCCAGCAGTTCCGCAGGGTCGAACTCTGCCAGATCTGCCAGCGCAACGAAGTTTTGCACCACCTGAATATCGCCCTGCACTTCCAGCTCACCACTGCGAATCAGTGCGGTAAGCTGCTGGCGATCGCGAAGTTTCGGCAACACACTGGCGTAGGCGATAACGGTGCA (double strand) [Biotin-PesrE (Biotin-S1V3)]”, the binding entry is reported as “binds”.
